Results: patent US20230131339A1, “EPI-X4 BASED PEPTIDES AND DERIVATIVES THEREOF” (Universitaet Ulm, priority 2020, published 2023)
Where no end group is shown, it is not given here. [ ]: non-standard residue; d: D form. The star is where a group is joined. Stearoyl = CCCCCCCCCCCCCCCCCC(=O)*; Palmitoyl = CCCCCCCCCCCCCCCC(=O)*; Myristoyl = CCCCCCCCCCCCCC(=O)*

B1: JM#256 (peptide)
peptide: [dL]LRWSRK(Stearoyl)-NH2
modifications: N-terminus assumed
SMILES: CCCCCCCCCCCCCCCCCC(=O)NCCCC[C@H](NC(=O)[C@H](CCCNC(=N)N)NC(=O)[C@H](CO)NC(=O)[C@H](Cc1c[nH]c2ccccc12)NC(=O)[C@H](CCCNC(=N)N)NC(=O)[C@H](CC(C)C)NC(=O)[C@H](N)CC(C)C)C(N)=O

These binders were tested against CXC chemokine receptor type 4 (CXCR4) (human, UniProt P61073 1-352) (assay: cell-based or functional assay).
CXC chemokine receptor type 4 (CXCR4), sequence (P61073 whole entry): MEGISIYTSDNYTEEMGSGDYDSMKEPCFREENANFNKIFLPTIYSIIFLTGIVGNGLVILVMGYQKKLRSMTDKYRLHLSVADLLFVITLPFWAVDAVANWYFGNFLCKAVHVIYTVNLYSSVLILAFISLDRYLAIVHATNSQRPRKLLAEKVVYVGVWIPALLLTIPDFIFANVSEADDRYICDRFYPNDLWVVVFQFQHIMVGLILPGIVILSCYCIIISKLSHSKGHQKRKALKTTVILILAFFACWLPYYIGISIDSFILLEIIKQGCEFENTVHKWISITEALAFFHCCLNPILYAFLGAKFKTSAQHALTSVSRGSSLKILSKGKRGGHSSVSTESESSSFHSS
With ILRWSRKVPCVS [JM#8] the “IC50, HIV inhibition assay” value was 50 to 150 nM. In the case of IFRWSRKVPCVS [JM#10], the “IC50, HIV inhibition assay” value is reported as 50 to 150 nM. For MLRWSRKMPCVS [JM#27], the “IC50, HIV inhibition assay” value was 50 to 150 nM. With MMRWSRKMPCVS [JM#34] the “IC50, HIV inhibition assay” value was 50 to 150 nM. With ILRWSRKLPSVS [JM#122] the “IC50, HIV inhibition assay” value was 50 to 150 nM. With [dL]LRWSRKMPCVS (not fully specified (residue 7)) [JM#140] the “IC50, HIV inhibition assay” value was 50 to 150 nM. ILRWSRK(Palmitoyl)MPCLS [JM#149] was tested, and the “IC50, HIV inhibition assay” value was 50 to 150 nM. In the case of ILRWSRK(Lau)LPCVS [JM#214], the “IC50, HIV inhibition assay” value is reported as 50 to 150 nM. For B1, the “IC50, HIV inhibition assay” value was 50 to 150 nM. In the case of ILRWSRK(Myristoyl)-NH2 [JM#262], the “IC50, HIV inhibition assay” value is reported as 50 to 150 nM. In the case of ILRWSKKVPCVS [JM#1], the “IC50, HIV inhibition assay” value is reported as over 150 nM. For IFRWSKKVPCVS [JM#2], the “IC50, HIV inhibition assay” value was over 150 nM. In the case of IVRWSRKVPCVS [JM#3], the “IC50, HIV inhibition assay” value is reported as over 150 nM. IVRWSHKVPCVS [JM#4] was tested, and the “IC50, HIV inhibition assay” value was over 150 nM. IVRWSKKLPCVS [JM#5] was tested, and the “IC50, HIV inhibition assay” value was over 150 nM. IVRWSKKIPCVS [JM#6] was tested, and the “IC50, HIV inhibition assay” value was over 150 nM. For IVRWSKKFPCVS [JM#7], the “IC50, HIV inhibition assay” value was over 150 nM. In the case of ILRWSHKVPCVS [JM#9], the “IC50, HIV inhibition assay” value is reported as over 150 nM. For IFRWSHKVPCVS [JM#11], the “IC50, HIV inhibition assay” value was over 150 nM. With IVRWSKKMPCVS [JM#12] the “IC50, HIV inhibition assay” value was over 150 nM. IVRWSKKVPC[dV]S [JM#14] was tested, and the “IC50, HIV inhibition assay” value was over 150 nM. In the case of ILRWSRKVPC[dV]S [JM#15], the “IC50, HIV inhibition assay” value is reported as over 150 nM. With IIRWSRKMPCVS [JM#16] the “IC50, HIV inhibition assay” value was over 150 nM. With ILRWSRKVPSVS [JM#23] the “IC50, HIV inhibition assay” value was over 150 nM. For ILRWSRKMPSVS [JM#24], the “IC50, HIV inhibition assay” value was over 150 nM. Ac-SLRWSRKMPCVS [JM#25] was tested, and the “IC50, HIV inhibition assay” value was over 150 nM.
